Measured values as given in the supplement of paper PMC6757056.
± gives the standard deviation of the averaged measurements.

B1: library; a variant is named by its letters at N, in order (parent)
chain: GCUGUCACCGGUGUAUUACCCUAGUGGUCGACCGGUCUGAUGAGUCUNNNNNNAGACGAAACAGC

How the values were obtained:
[1] = variants of: B1; test: FACS-Seq fitted mean relative fluorescence mCherry/BFP without ligand (log10 relative fluorescence); ligand: hypoxanthine (xanthine aptamer); higher = higher reporter protein expression; conditions: HEK293T, ligand present: no
In short: (§1)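 Fluorescence comes from a normal fit to bin counts, normalized against controls. HEK293T libraries lentivirally given a ribozyme-switch mCherry reporter and an EF1α-BFP marker were enriched, incubated 48 h with or without ligand, and sorted by mCherry/BFP into 6 bins. Bin genomic DNA was PCR-amplified, barcoded and sequenced on MiSeq. The log10(mCherry/BFP) mean was scaled to five spiked-in control ribozymes.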

[2] = variants of: B1; test: normalized RNA/DNA level with ligand (relative to sTRSVctl = 100) (log10 (% of sTRSVctl)); ligand: hypoxanthine (xanthine aptamer); higher = less ribozyme self-cleavage, higher mRNA level; conditions: ligand concentration (+) RNA-Seq: 5 mM, HEK293T, reporter: mCherry (pCS4076), ligand present: yes
In short: (§2)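 Total RNA, extracted with EDTA 72 h after HEK293T cells were transfected with 4 µg per 6-well well of reporter-linked ribozyme switch library plasmids, was reverse-transcribed, amplified, barcoded and sequenced. Ligand, if used, was added 1 h before transfection. RNA level was derived from RNA reads divided by DNA reads and normalized to a spiked-in non-cleaving sequence or to the top sequences. This was multiplied by 100 and log10-transformed, with the top set of 25 sequences and a ≥100 DNA read minimum.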

[3] = variants of: B1; test: normalized RNA/DNA level without ligand (relative to sTRSVctl = 100) (log10 (% of sTRSVctl)); ligand: hypoxanthine (xanthine aptamer); higher = less ribozyme self-cleavage, higher mRNA level; conditions: HEK293T, reporter: mCherry (pCS4076), ligand present: no
In short: as §2

[4] = variants of: B1; test: FACS-Seq fitted mean relative fluorescence mCherry/BFP with ligand (log10 relative fluorescence); ligand: hypoxanthine (xanthine aptamer); ligand concentration (+) FACS-Seq: 5 mM; higher = higher reporter protein expression; conditions: HEK293T, ligand present: yes
In short: as §1

| Variant | FACS-Seq fitted mean (log10) [1] | normalized RNA/DNA level with ligand (log10) [2] | normalized RNA/DNA level without ligand (log10) [3] | FACS-Seq fitted mean (log10) [4] |
| --- | --- | --- | --- | --- |
| GCUGGG | 0.121 ± 0.13 | 1.94 ± 0.0053 | 1.55 ± 0.083 | 0.547 ± 0.091 |
| GCUGGC | 0.495 ± 0.075 | 1.85 ± 0.12 | 1.78 ± 0.038 | 0.468 ± 0.018 |
| GGAAUA | 0.68 ± 0.044 | 1.9527 ± 0.00026 | 1.78 ± 0.028 | 0.588 ± 0.045 |
| GGAAUU | 0.904 ± 0.078 | 1.955 ± 0.011 | 1.89 ± 0.045 | 0.815 ± 0.039 |
| GGAAUG | -0.159 ± 0.068 | 1.842 ± 0.0069 | 1.34 ± 0.03 | -0.507 ± 0.2 |
| GCUGAU | 0.294 ± 0.021 | 1.97 ± 0.029 | 1.776 ± 0.014 | 0.376 ± 0.054 |
| GCUGAA | 0.332 ± 0.011 | 1.91 ± 0.032 | 1.76 ± 0.038 | 0.43 ± 0.092 |
| CCUGAG | 0.635 ± 0.045 | 1.918 ± 0.014 | 1.653 ± 0.0099 | 0.706 ± 0.046 |
| UCUGUG | -0.545 ± 0.051 | 1.91 ± 0.052 | 1.706 ± 0.0071 | -0.796 ± 0.03 |
| UCGUAG | 0.444 ± 0.042 | 1.88 ± 0.031 | 1.5605 ± 0.0013 | 0.642 ± 0.051 |
| GGAACG | 0.254 ± 0.083 | 1.88 ± 0.072 | 1.503 ± 0.015 | 0.597 ± 0.098 |
| UCUGGG | 0.132 ± 0.074 | 1.97 ± 0.055 | 1.8 ± 0.04 | 0.368 ± 0.054 |
| UCUGGC | 0.393 ± 0.029 | 1.94 ± 0.0059 | 1.87 ± 0.044 | 0.508 ± 0.055 |
| UCUGGA | 0.147 ± 0.0055 | 1.85 ± 0.043 | 1.6 ± 0.031 | 0.462 ± 0.029 |
| GCGUGU | 0.0904 ± 0.007 | 1.84 ± 0.049 | 1.42 ± 0.039 | 0.45 ± 0.049 |
| GCGUGG | 0.196 ± 0.064 | 1.6355 ± 0.0011 | 1.13 ± 0.019 | 0.684 ± 0.047 |
| GCGUGA | 0.278 ± 0.054 | 1.82 ± 0.048 | 1.4 ± 0.017 | 0.618 ± 0.062 |
| UCGGUA | 0.215 ± 0.024 | 1.912 ± 0.014 | 1.562 ± 0.014 | 0.485 ± 0.04 |
| CCGUGU | 0.225 ± 0.038 | 1.89 ± 0.12 | 1.69 ± 0.017 | 0.616 ± 0.025 |
| CCGUGA | 0.311 ± 0.044 | 1.973 ± 0.0073 | 1.565 ± 0.012 | 0.64 ± 0.017 |
| CCGUGG | 0.237 ± 0.043 | 1.823 ± 0.0069 | 1.23 ± 0.16 | 0.718 ± 0.053 |
| GCUACC | 0.407 ± 0.037 | 1.91 ± 0.07 | 1.76 ± 0.024 | 0.599 ± 0.028 |
| GCUACG | 0.064 ± 0.029 | 1.95 ± 0.078 | 1.517 ± 0.015 | 0.42 ± 0.0069 |
| GCGUUA | 0.535 ± 0.018 | 1.94 ± 0.037 | 1.65 ± 0.073 | 0.594 ± 0.022 |

| Variant | FACS-Seq fitted mean (log10) [1] | normalized RNA/DNA level with ligand (log10) [2] | normalized RNA/DNA level without ligand (log10) [3] | FACS-Seq fitted mean (log10) [4] |
| --- | --- | --- | --- | --- |
| GCGUUG | 0.142 ± 0.042 | 1.78 ± 0.034 | 1.3 ± 0.027 | 0.658 ± 0.021 |
| GCUGUG | 0.345 ± 0.079 | 1.93 ± 0.025 | 1.76 ± 0.022 | 0.539 ± 0.081 |
| ACUCCC | -0.354 ± 0.031 | 1.96 ± 0.06 | 1.924 ± 0.019 | -0.746 ± 0.075 |
| ACUCCG | 0.262 ± 0.039 | 1.895 ± 0.0092 | 1.44 ± 0.026 | 0.615 ± 0.02 |
| UCGUGG | 0.572 ± 0.0094 | 1.9 ± 0.024 | 1.593 ± 0.0033 | 0.819 ± 0.066 |
| UCGUGA | 0.414 ± 0.036 | 1.84 ± 0.022 | 1.27 ± 0.039 | 0.578 ± 0.16 |
| UCGUGC | 0.446 ± 0.039 | 1.953 ± 0.016 | 1.78 ± 0.072 | 0.686 ± 0.013 |
| AGAACC | 0.228 ± 0.048 | 1.937 ± 0.014 | 1.87 ± 0.022 | 0.264 ± 0.055 |
| AGAACG | 0.48 ± 0.04 | 1.833 ± 0.015 | 1.436 ± 0.0026 | 0.756 ± 0.08 |
| ACUAUA | 0.701 ± 0.099 | 1.89 ± 0.039 | 1.823 ± 0.017 | 0.693 ± 0.019 |
| GCUCUG | 0.3 ± 0.0076 | 1.89 ± 0.045 | 1.32 ± 0.05 | 0.685 ± 0.024 |
| UCUCUA | 0.399 ± 0.023 | 1.94 ± 0.058 | 1.743 ± 0.0054 | 0.493 ± 0.055 |
| UCUCUG | 0.0437 ± 0.023 | 1.77 ± 0.022 | 1.3 ± 0.032 | 0.522 ± 0.028 |
| GCUUGA | 0.378 ± 0.011 | 1.924 ± 0.018 | 1.817 ± 0.0041 | 0.53 ± 0.017 |
| GCUUGG | -0.174 ± 0.029 | 1.83 ± 0.036 | 1.374 ± 0.0045 | 0.326 ± 0.038 |
| GCUAUU | 0.263 ± 0.011 | 1.927 ± 0.011 | 1.89 ± 0.004 | 0.412 ± 0.06 |
| GCUAUG | 0.086 ± 0.067 | 1.86 ± 0.025 | 1.36 ± 0.065 | 0.318 ± 0.022 |
| CCUGUA | 0.473 ± 0.019 | 1.892 ± 0.015 | 1.89 ± 0.041 | 0.515 ± 0.006 |
| CCUGUG | 0.676 ± 0.039 | 1.97 ± 0.026 | 1.86 ± 0.051 | 0.685 ± 0.086 |
| ACUUCG | 0.592 ± 0.03 | 1.9 ± 0.024 | 1.6 ± 0.1 | 0.766 ± 0.1 |
| ACUUAA | 0.504 ± 0.046 | 1.933 ± 0.0065 | 1.787 ± 0.01 | 0.596 ± 0.075 |
| ACUUAG | 0.227 ± 0.048 | 1.81 ± 0.025 | 1.52 ± 0.061 | 0.503 ± 0.042 |
| GGAAAA | -0.00225 ± 0.06 | 1.925 ± 0.018 | 1.686 ± 0.006 | 0.168 ± 0.059 |
| GGAAAG | 0.282 ± 0.038 | 1.8 ± 0.018 | 1.34 ± 0.094 | 0.711 ± 0.029 |

| Variant | FACS-Seq fitted mean (log10) [1] | normalized RNA/DNA level with ligand (log10) [2] | normalized RNA/DNA level without ligand (log10) [3] | FACS-Seq fitted mean (log10) [4] |
| --- | --- | --- | --- | --- |
| UCUAAA | 0.325 ± 0.034 | 1.96 ± 0.035 | 1.79 ± 0.062 | 0.0897 ± 0.011 |
| UCUAAG | 0.59 ± 0.091 | 1.9502 ± 0.0012 | 1.7 ± 0.088 | 0.678 ± 0.094 |
| UCUAAU | 0.308 ± 0.028 | 1.92 ± 0.022 | 1.79 ± 0.039 | 0.511 ± 0.032 |
| CCGGUG | 0.264 ± 0.0078 | 1.87 ± 0.087 | 1.45 ± 0.044 | 0.594 ± 0.0013 |
| CCGGUU | 0.42 ± 0.083 | 2.026 ± 0.011 | 1.91 ± 0.032 | 0.297 ± 0.098 |
| AGAAAU | 0.552 ± 0.024 | 1.93 ± 0.036 | 1.83 ± 0.034 | 0.414 ± 0.021 |
| AGAAAA | 0.559 ± 0.023 | 1.89 ± 0.023 | 1.78 ± 0.048 | 0.133 ± 0.027 |
| AGAAAC | 0.541 ± 0.013 | 1.93 ± 0.055 | 1.796 ± 0.01 | 0.58 ± 0.023 |
| UCUAGA | 0.927 ± 0.07 | 1.91 ± 0.028 | 1.69 ± 0.056 | 0.0154 ± 0.086 |
| UCUAGC | 0.834 ± 0.0096 | 1.95 ± 0.023 | 1.85 ± 0.032 | 0.666 ± 0.062 |
| GCUCGG | 0.247 ± 0.027 | 1.88 ± 0.074 | 1.4 ± 0.022 | 0.851 ± 0.056 |
| GCUCGA | 0.14 ± 0.0058 | 1.92 ± 0.02 | 1.67 ± 0.088 | 0.526 ± 0.025 |
| CCUACA | 0.617 ± 0.024 | 1.975 ± 0.01 | 1.9 ± 0.015 | 0.603 ± 0.01 |
| UGAAAC | -0.0117 ± 0.11 | 1.91 ± 0.027 | 1.81 ± 0.059 | 0.2594 ± 0.0017 |
| CGAACC | 0.676 ± 0.041 | 1.94 ± 0.035 | 1.89 ± 0.02 | 0.635 ± 0.062 |
| GCGGGG | 0.17 ± 0.0079 | 1.96 ± 0.031 | 1.56 ± 0.026 | 0.433 ± 0.03 |
| GCGGGU | 0.731 ± 0.07 | 1.97 ± 0.048 | 1.83 ± 0.016 | 0.735 ± 0.05 |
| GCGGUC | 0.327 ± 0.046 | 1.878 ± 0.015 | 1.5197 ± 0.00012 | 0.644 ± 0.063 |
| GCGGUA | 0.439 ± 0.019 | 1.943 ± 0.0021 | 1.68 ± 0.036 | 0.677 ± 0.034 |
| GCGGUG | 0.212 ± 0.007 | 1.79 ± 0.053 | 1.41 ± 0.097 | 0.623 ± 0.019 |
| ACUGAU | 0.247 ± 0.08 | 1.92 ± 0.053 | 1.67 ± 0.026 | 0.431 ± 0.058 |
| ACUGAC | 0.249 ± 0.034 | 1.95 ± 0.11 | 1.835 ± 0.014 | 0.347 ± 0.1 |
| ACUGAA | 0.038 ± 0.062 | 1.92 ± 0.079 | 1.737 ± 0.0053 | 0.0938 ± 0.16 |
| ACUGAG | 0.241 ± 0.019 | 1.818 ± 0.015 | 1.37 ± 0.04 | 0.673 ± 0.028 |
